± gives the standard deviation of the averaged measurements.
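Note: ATP exposure 15 min at 22 °C before imaging.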

This data set has as its system ATP. As to the kind of experiment: switch fluorescence ratio, 500 uM ATP over buffer (Cy3 cluster intensity, sum of 5 cycles each) (fold (ratio)); higher = stronger signal-on switching upon ATP binding; sequences stand for … in TCGTCGGCAGCGTCAGATGTGTATAAGAGACAGTTTTTTTTTTTTTTTTTTTTTTTTT…TC. Particulars: aptamer strand: ATP DNA aptamer (quencher-CACCTGGGGGAGTATTGCGGAGGAAGG + anchor), 100 nM annealed; ATP concentration: 500 uM. In short, it runs like this: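 After annealing to 100 nM quencher-labelled ATP aptamer, Cy3-labelled switching-strand clusters on a modified Illumina MiSeq flow-cell were imaged in selection buffer. A second image followed after 15 min with 500 uM ATP at 22 °C, and five such buffer/ATP cycles were done, each separated by NaOH stripping and re-annealing. The fluorescence ratio, averaged per switch-domain sequence, is summed target-cycle over summed buffer-cycle Cy3 intensity per cluster, with clusters outside 100-1000 RFU excluded.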
As for GAAGCTTGGT, the switch fluorescence ratio amounted to 0.972 ± 0.041.
The figure for AGGGGGAGGA is 1.01 ± 0.04; for TACAATTTTA it is 1.006 ± 0.0041.
With TTGGCCTCGA, the switch fluorescence ratio is 1.01 ± 0.039.
The figure for AGTGGGCGGG is 1.003 ± 0.0097; for TGACGGGCAG it is 1.07 ± 0.015.
Turning to GGGGAGGTAG, the switch fluorescence ratio is 0.985 ± 0.014.
Take CCTGGGGTTT: the switch fluorescence ratio was determined as 1.09 ± 0.15.
The figure for TGGGGGTCGA is 1.01 ± 0.053; for TCGAGGTCGA it is 1.01 ± 0.039; for TAGGGGTTGT it is 1.02 ± 0.028.
Turning to ATTTGTTGT, the switch fluorescence ratio is 0.973 ± 0.052.
Consider AAGGGGATAT, for which the switch fluorescence ratio worked out at 1.03 ± 0.044.
As to TTTTGGAATG, the switch fluorescence ratio worked out at 1.011 ± 0.0027.
The figure for ATGGGGGGGC is 1.01 ± 0.022; for TGAAGACATT it is 1.02 ± 0.04; for AGGGAGCAGT it is 1.018 ± 0.01.
Consider CTGTATCTTT, for which the switch fluorescence ratio stood at 1.02 ± 0.036.
CGCACCGGGT: the switch fluorescence ratio was determined as 1.05 ± 0.015.
In the case of CTGGGATAGG, the switch fluorescence ratio is 1 ± 0.02.
For the sequence CGTTGATGGT, the switch fluorescence ratio came to 0.992 ± 0.02.
For the sequence AGACTTTAGT, the switch fluorescence ratio turned out to be 1.01 ± 0.036.
Consider GATAGATGTT, for which the switch fluorescence ratio came out at 0.979 ± 0.02.
Consider GGCACATTTT, for which the switch fluorescence ratio amounted to 1.01 ± 0.022.
With CCCTATTTGC, the switch fluorescence ratio was found to be 1.06 ± 0.02.
The result for AAGGCTGGGG reads 0.9781 ± 0.0058.
Regarding AGTGAGGGGA, the switch fluorescence ratio was found to be 0.975 ± 0.015.
For GGGACTATCA, the switch fluorescence ratio is 0.982 ± 0.014.
For the sequence TGGGGGTTGG, the switch fluorescence ratio was 1 ± 0.024.
The figure for TCACGCCTTT is 1.05 ± 0.033; for GGCACCTTAT it is 1.06 ± 0.034; for CAAGGCATGG it is 1.05 ± 0.033.
As for TAAGGCTTTG, the switch fluorescence ratio worked out at 0.9987 ± 0.0068.
Take CTCAAATATG: the switch fluorescence ratio came to 1.002 ± 0.0051.
On to GCGCCTAGGG, for which the switch fluorescence ratio was determined as 0.999 ± 0.018.
Take AGGGAAATGG: the switch fluorescence ratio amounted to 0.979 ± 0.034.
As for ATCGATGCTT, the switch fluorescence ratio was found to be 0.979 ± 0.012.
With AAGTTTTGGG, the switch fluorescence ratio came out at 0.974 ± 0.02.
Turning to ATTGTGGGGC, the switch fluorescence ratio was 1 ± 0.022.
On to CGGTTGGGTT, for which the switch fluorescence ratio came out at 0.99659 ± 6.3e-05.
The figure for GATGTAGGTA is 0.983 ± 0.038; for AGCGAGACGT it is 1.12 ± 0.034; for AGGGCGGGAT it is 0.965 ± 0.049.
Take AGTGTGTTAG: the switch fluorescence ratio was found to be 0.987 ± 0.015.
Take CCCATTGTCG: the switch fluorescence ratio was found to be 1.01 ± 0.064.
The figure for CTGTTGAATT is 1.01 ± 0.046; for AAATTCGGGA it is 0.9799 ± 0.0032; for CAGTGAGGGA it is 0.9804 ± 0.004.
With TGGTTTAATA, the switch fluorescence ratio was 0.9853 ± 0.0079.
As for CACGATTTGG, the switch fluorescence ratio is 0.995 ± 0.014.
Regarding CCTAGTAGCG, the switch fluorescence ratio is 1.01 ± 0.014.
In the case of CGCTTAATTA, the switch fluorescence ratio was determined as 1.01 ± 0.041.
As to AATTGTGTTT, the switch fluorescence ratio is 1.01 ± 0.021.
Take CAGTGGGTCT: the switch fluorescence ratio worked out at 0.992 ± 0.017.
The result for AGCTGGGCCT reads 1.04 ± 0.011.
For the sequence GTGGATGGAC, the switch fluorescence ratio turned out to be 1.03 ± 0.022.
CAACATCTAT: the switch fluorescence ratio amounted to 1.02 ± 0.053.
For the sequence TTCATAGTCG, the switch fluorescence ratio was 0.98 ± 0.07.
On to CTAACCATCT, for which the switch fluorescence ratio worked out at 1.028 ± 0.0038.
The figure for TAATATGGGG is 1.01 ± 0.039.
For the sequence TCGATTGGGG, the switch fluorescence ratio was determined as 0.9682 ± 0.0089.
As for TTTTTAGAG, the switch fluorescence ratio came out at 0.999 ± 0.021.
With TGGGTTGACG, the switch fluorescence ratio is 0.998 ± 0.037.
GCGATTTGTG: the switch fluorescence ratio was determined as 1.01 ± 0.037.
The figure for AAAAATCTCT is 1.02 ± 0.033; for CGATGTTTGG it is 0.988 ± 0.025.

These data come from the supplement of paper PMC10126150.
